Measurements reported in the supplement of paper PMC11875167.

Assay: observed amide hydrogen exchange rate constant kobs (stretched exponential fit, FD-normalized) (s^-1); higher = faster H/D exchange (less protection)
Conditions: pH 3 (pH read); temperature: 20 °C; D2O: 88%
Procedure, shortened: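 Uptake curves were fitted to a stretched single exponential with β = 0.8, and kobs, the observed exchange rate constant, is the fitted rate. The data came from Jurkat tryptic peptides (LysC/trypsin, carbamidomethylated cysteines) labeled in 88% D2O at pHread 3, 20 °C, then quenched with 0.23% formic acid at 13 times from 18 to 93,600 s in processing triplicates. MS1 uptake from a Q-Exactive HF, analyzed in HDExaminer with no back-exchange correction, was normalized to full-deuteration controls (24 h, 37 °C).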

Row | Substance | observed amide hydrogen exchange rate constant kobs
1 | SIEVIENR | 0.000822
2 | DYFGAHTYELLAK | 0.00186
3 | EDLHDMLASLGK | 0.00199
4 | YISPDQLADLYK | 0.000916
5 | GTGIVSAPVPK | 0.00104
6 | ILATPPQEDAPSVDIANIR | 0.00103
7 | DVNVNFEK | 0.00146
8 | DYFLFR | 0.00105
9 | LILPHVDIQLK | 0.000852
10 | HIADLAGNSEVILPVPAFNVINGGSHAGNK | 0.00138
11 | ENALVQMADGNQAQLAMSHLNGHK | 0.00127
12 | MVVESAYEVIK | 0.000759
13 | HWPFMVVNDAGRPK | 0.00131
14 | DAGTIAGLNVLR | 0.000899
15 | GLFIIDDK | 0.00107
16 | LIINSLYK | 0.00064
17 | TVHAGEVGSAEVVK | 0.00152
18 | ELGIWEPLAVK | 0.000742
19 | FHGTVK | 0.00166
20 | HLEINPDHPIVETLR | 0.00133
21 | VLITTDLLAR | 0.000753
22 | SIYYITGESK | 0.00108
23 | ATENDIANFFSPLNPIR | 0.000823

Row | Substance | observed amide hydrogen exchange rate constant kobs
24 | TFNTSTGGLLLPSDTK | 0.00131
25 | IGLFGGAGVGK | 0.000762
26 | LNGTDPEDVIR | 0.00197
27 | EALQDVEDENQ | 0.0022
28 | AIADTGANVVVTGGK | 0.00115
29 | AAQEEYVK | 0.00112
30 | DYNVTANSK | 0.00116
31 | GFGFVLFK | 0.000656
32 | SVPTSTVFYPSDGVATEK | 0.000911
33 | YAFVNWINK | 0.00131
34 | EAEAAIYHLQLFEELRR | 0.00102
35 | EDSQRPGAHLTVK | 0.00212
36 | VLQATVVAVGSGSK | 0.000618
37 | IREEYPDR | 0.00399
38 | FNVWDTAGQEK | 0.00146
39 | LAHEVGWK | 0.00169
40 | VIGSGCNLDSAR | 0.00116
41 | LEEDISSSMTNSTAASRPPVTLR | 0.00131
42 | TFVNITPAEVGVLVGK | 0.000609
43 | TATESFASDPILYRPVAVALDTK | 0.000776
44 | NIGVDNPAAK | 0.0014
45 | QIPQATASMK | 0.00103
46 | FAAATGATPIAGR | 0.00118

Row | Substance | observed amide hydrogen exchange rate constant kobs
47 | ELLPEIR | 0.0016
48 | HIYYITGETK | 0.00121
49 | ISVVSTK | 0.000812
50 | HYGGLTGLNK | 0.00221
51 | CILQDGR | 0.00103
52 | AQVARPGGDTIFGK | 0.00115
53 | AAVPSGASTGIYEALELRDNDK | 0.00126
54 | VEIIANDQGNR | 0.00189
55 | EAILDIITSR | 0.0013
56 | ALLFIPR | 0.000533
57 | VMLGETNPADSKPGTIR | 0.00166
58 | IETIEVMEDR | 0.00148
59 | LGEWVGLCK | 0.000773
60 | LGGSLADSYLDEGFLLDK | 0.00175
61 | LLEPVLLLGK | 0.000574
62 | EVSTYIK | 0.000877
63 | LNEHFLNTTDFLDTIK | 0.00161
64 | QSLGELIGTLNAAK | 0.000915
65 | FHVEEEGK | 0.00347
66 | SYDVPPPPMEPDHPFYSNISK | 0.00134
67 | LLGELLQDNAK | 0.000855
68 | RVHPVSTMIK | 0.00129
69 | YAISMAR | 0.00127

Row | Substance | observed amide hydrogen exchange rate constant kobs
70 | VLDFEHFLPMLQTVAK | 0.000855
71 | TLVLLMGK | 0.000552
72 | QSKPVTTPEEIAQVATISANGDK | 0.000917
73 | AAIDWFDGK | 0.00155
74 | AFLASPEYVNLPINGNGK | 0.000869
75 | TAMSTPHVAEPAENEQDEQDENGAEASADLR | 0.00244
76 | LVINGNPITIFQERDPSK | 0.000923
77 | LMDVGLIAIR | 0.000707
78 | EQVANSAFVER | 0.00104
79 | LNLVQR | 0.000854
80 | RNTTIPTK | 0.00112
81 | AGLQFPVGR | 0.00107
82 | DVNAAIATIK | 0.000675
83 | TENLLGSYFPK | 0.00102
84 | QTVAVGVIK | 0.000426
85 | GALQNIIPASTGAAK | 0.000988
86 | MTDQEAIQDLWQWR | 0.000842
87 | YHTSQSGDEMTSLSEYVSR | 0.00202
88 | GLVGEIIK | 0.000569
89 | DLSLEEIQK | 0.00108
90 | EISLWFKPEELVDYK | 0.000892
91 | IISSIEQK | 0.00126
92 | TITLEVEPSDTIENVK | 0.001

Row | Substance | observed amide hydrogen exchange rate constant kobs
93 | NMGGPYGGGNYGPGGSGGSGGYGGR | 0.00223
94 | YALYDATYETK | 0.00134
95 | DSYVGDEAQSK | 0.00207
96 | IRYESLTDPSK | 0.00212
97 | DSTLIMQLLR | 0.000608
98 | NIPGITLLNVSK | 0.000585
99 | MFVLDEADEMLSR | 0.00164
100 | EKPYFPIPEEYTFIQNVPLEDR | 0.000754
101 | ALGQNPTNAEVLK | 0.000979
102 | EDAANNYAR | 0.0026
103 | AVDSQILPK | 0.000865
104 | IMNTFSVVPSPK | 0.000631
105 | VSHLLGINVTDFTR | 0.00119
106 | MVNHFIAEFK | 0.00114
107 | LTGMAFR | 0.00159
108 | ISVYYNEATGGK | 0.00138
109 | NFAFLEFR | 0.00106
110 | GIAYIEFK | 0.00091
111 | LAMQEFMILPVGAANFR | 0.000775
112 | GNFGGSFAGSFGGAGGHAPGVAR | 0.00196
113 | GEGQLGPAER | 0.0023
114 | SLTNDWEDHLAVK | 0.00185
115 | LFQECCPHSTDR | 0.00299

Row | Substance | observed amide hydrogen exchange rate constant kobs
116 | QFLFRPWDVTK | 0.000828
117 | LLEVEHPAAK | 0.00188
118 | MLVSGAGDIK | 0.00135
119 | APIIAVTR | 0.000401
120 | NQGGYGGSSSSSSYGSGR | 0.00275
121 | AAPEASGTPSSDAVSR | 0.00186
122 | LHFFMPGFAPLTSR | 0.00112
123 | LVQGSILK | 0.000721
124 | RHLTGEFEK | 0.00392
125 | IDFYFDENPYFENK | 0.00186
126 | GILAADESTGSIAK | 0.00166
127 | VLATVTKPVGGDK | 0.000932
128 | TAFQEALDAAGDK | 0.00172
129 | AVDDGVNTFK | 0.00173
130 | SFYPEEVSSMVLTK | 0.000867
131 | TLGILGLGR | 0.00116
132 | EWFLQAAK | 0.00111
133 | EILVGDVGQTVDDPYATFVK | 0.00102
134 | YLPELMAEK | 0.000924
135 | IILDLISESPIK | 0.000711
136 | TLNDELEIIEGMK | 0.000994
137 | ESKDPADETEAD | 0.00321
138 | GGSDGYGSGR | 0.00404

Row | Substance | observed amide hydrogen exchange rate constant kobs
139 | DQLIYNLLK | 0.000541
140 | DRPFFAGLVK | 0.000655
141 | FLVYVANFDEK | 0.000821
142 | FGYVDFESAEDLEK | 0.00214
143 | LLLPWLEAR | 0.00056
144 | SSGPTSLFAVTVAPPGAR | 0.000757
145 | VELLLK | 0.000604
146 | IDEPLEGSEDR | 0.00298
147 | IFGGLDMLAEK | 0.00145
148 | GIGYLK | 0.00124
149 | SIQFVDWCPTGFK | 0.00182
150 | AIPQLQGYLR | 0.00091
151 | SAEFLLHMLK | 0.00118
152 | VAASNIVQMK | 0.000933
153 | EIIDLVLDR | 0.00103
154 | SNNVEMDWVLK | 0.000871
155 | EVDEQMLNVQNK | 0.00132
156 | EQFLDGDGWTSR | 0.00231
157 | VIHDNFGIVEGLMTTVHAITATQK | 0.00116
158 | IMATPEQVGK | 0.000917
